Measurements taken from paper PMC7939394, “A highly potent CD73 biparatopic antibody blocks organization of the enzyme active site through dual mechanisms” (The Journal of Biological Chemistry, 2020).
One block for each binder: values may come before it.

What was measured:
TB19/TB38 = experiment: SPR; Biacore T200, 25°C, HBS-EP+ pH 7.4; antibody captured at low density (5-30 RU) on Protein A chips, CD73 at 3, 12 or 32 nM in the flow (5 min association, 30 min dissociation); 1:1 Langmuir binding model
TB38/AS30 = experiment: as above
TB19/AS30 = experiment: as above
[1] = biological target: the molecule itself; experiment: crystal structure; TB19 Fab::CD73 complex; crystals in 0.1 M sodium potassium phosphate pH 6.2, 35% 5-methyl-2,4-pentanediol, 2.5% pentaerythritol ethoxylate, 4°C
[2] = biological target: T1, extracellular domain of human CD73 (residues 27-549) deglycosylated with PNGase F (human, UniProt P21589, deglycosylated with PNGase F; a glycan left at Asn-311); experiment: crystal structure; TB38 Fab::CD73 complex; crystals in 1.6 M sodium phosphate monobasic, 0.4 M potassium phosphate dibasic, 0.1 M sodium phosphate citrate pH 5.3, 4°C; conditions: both partners purified
T1 construct: CD73 (ecto-5'-nucleotidase, NT5E), human, extracellular domain, residues 27-549; Construct used for SEC-MALS and for the two crystal structures; also called ecto-5'-nucleotidase; NT5E; source: ExpiHEK293, purified (nickel column, PNGase F, size-exclusion chromatography)

soluble CD73 dimer = biological target: T2, soluble CD73 dimer (human, UniProt P21589); experiment: BLI; pre-mix epitope binning: monovalent antibodies on protein A biosensors, 100 nM CD73 alone or with a 4-fold molar excess of Fab; PBS pH 7.4, 0.1% BSA, 0.01% Tween 20, 30°C; conditions: both partners purified
T2 construct: CD73 (ecto-5'-nucleotidase, NT5E), human, soluble form; Also used here as the target of the functional rows, where CD73 stood whole on COR-L23 cells; also called soluble human CD73

[3] = biological target: T1, extracellular domain of human CD73 …; experiment: crystal structure; TB19 Fab::CD73 complex; crystals in 0.1 M sodium potassium phosphate pH 6.2, 35% 5-methyl-2,4-pentanediol, 2.5% pentaerythritol ethoxylate, 4°C; conditions: both partners purified

Kd (TB19/TB38): 0.555 nM
koff (TB19/TB38): 0.000102 s⁻¹
kon (TB19/TB38): 184000 M⁻¹ s⁻¹
Kd (TB38/AS30): 0.814 nM
koff (TB38/AS30): 0.000187 s⁻¹
kon (TB38/AS30): 237000 M⁻¹ s⁻¹
Kd (TB19/AS30): 4.18 nM
koff (TB19/AS30): 0.00069 s⁻¹
kon (TB19/AS30): 165000 M⁻¹ s⁻¹
B1: soluble CD73 dimer (enzyme)
chain: WELTILHTNDVHSRLEQTSEDSSKCVNASRCMGGVARLFTKVQQIRRAEPNVLLLDAGDQYQGTIWFTVYKGAEVAHFMNALRYDAMALGNHEFDNGVEGLIEPLLKEAKFPILSANIKAKGPLASQISGLYLPYKVLPVGDEVVGIVGYTSKETPFLSNPGTNLVFEDEITALQPEVDKLKTLNVNKIIALGHSGFEMDKLIAQKVRGVDVVVGGHSNTFLYTGNPPSKEVPAGKYPFIVTSDDGRKVPVVQAYAFGKYLGYLKIEFDERGNVISSHGNPILLNSSIPEDPSIKADINKWRIKLDNYSTQELGKTIVYLDGSSQSCRFRECNMGNLICDAMINNNLRHTDEMFWNHVSMCILNGGGIRSPIDERNNGTITWENLAAVLPFGGTFDLVQLKGSTLKKAFEHSVHRYGQSTGEFLQVGGIHVVYDLSRKPGDRVVKLDVLCTKCRVPSYDPLKMDEVYKVILPNFLANGGDGFQMIKDELLRHDSGDQDINVVSTYISKMKVIYPAVEGRIKFS

B2: extracellular domain of human CD73 (residues 27-549) deglycosylated with PNGase F (enzyme, UniProt P21589 27-549, looked up)
chain: B1 chain
modifications: deglycosylated with PNGase F; a glycan left at Asn-311
notes: CD73 (ecto-5'-nucleotidase, NT5E), human, extracellular domain, residues 27-549; Construct used for SEC-MALS and for the two crystal structures; also called ecto-5'-nucleotidase; NT5E; source: ExpiHEK293, purified (nickel column, PNGase F, size-exclusion chromatography)
stoichiometry N [1]: 2

binding result [2]: binds
B3: TB38 Fab (Fab, V domains shown)
VH: QVQLVESGGGVVQPGRSLRLSCAASGFTFSSYGMHWVRQAPGKGLEWVAVFWYDGSNKYYADSVKGRFTISRDNSKNTLYLQMNSLSAEDTAVYYCARAPNWDDAFDIWGQGTMVTVSS
VL: QTVVTQEPSFSVSPGGTVTLTCGLSSGSVSTSYYPNWYQQTPGQAPRTLIYSTNTRSSGVPDRFSGSILGNKAALTITGAQADDESDYYCVLFMGSGIWVFGGGTKLTVL
notes: deposited with the structure TB38::CD73, PDB 6VCA (full Fab built on the open CD73 dimer); also called TB38 Fv

binding result (soluble CD73 dimer): binds
binding result [3]: binds
B4: TB19 Fab (Fab, V domains shown)
VH: QEQLQESGPGLVKPSETLSLTCTVSGGSIRNNYYNWIRQPAGKGLEWIGRIYISGTTNSNPSLKSRVTMSIDTSKNQFSLKLSSVTAADTAIYYCAREHYVSGTSLDNWGQGTLVTVSS
VL: EIVMTQSPTTLSLSPGERATLSCRASQSVNTNYFSWYQQKPGLTPRLLIYGTSTRATGIPARFSGSGSGTDFTLTISSLQPEDFGIYYCQQDYNLPYTFGQGTYLEIK
notes: deposited with the structure TB19::CD73, PDB 6VC9 (only the Fv could be built); The methods speak of a 'TB19.3 Fv model' as search model; also called TB19 Fv
